Test results taken from the DeepSol protein solubility set.

Experiment: soluble on expression in E. coli; label from the status in PepcDB or PDB records

Sequence	soluble on expression in E. coli
MSLSKQISNLNSSSNKPKILSLFSGCGGLDLGFHQAGCETVWANDFSHWACESFRKNIGDVIVEGDIEQINPNDPTIPDCDIILGGFPCQDFSMIWKQPGLEGERGNLYKSFLRFVNAKKPKVFVAENVKGLLTANKKKAIQQIITDFENCGYYVQAKLYNFAEFGVPQFRERVLIVGVRLDTGFDFRHPEPTHNETGENGLKPYVTAGQAISNIPQNASNNELLKISDKTRRMLELIPEGGNFTDIPKDHPLYVKGMISHVYRRMHRNEPSKTIIAAGGGGTWGYHFPEPRAFTNRERARLQSFPDDFEFVGSTTEVRRQIGNAVPPQGVVELAKSILPIFSDNYEKVDLHEKLVEEKEILFHDRLSKIRGGKEGHHHHHH	soluble
MGSDKIHHHHHHMSAIPIIDIPFDKRHTCWFCGEPCNQHFEYHSQTHTPHPSLAVPACSECAKLAKQHPLTSIWDCRMAVKDALMRIYAKHLAIGINWTEAELAESDFSCNIFEGFKKSAWMMYQIARDRINAPGWPLRLEEIEIDDQGYSAGFEFDGVTYTSVHAAIHYYSTQFTLDPTFFADLVRLVGRARFNYALRLARIHIASAKEMKRQVLTDLEAELI	not soluble
MSKLAEFREAERKLQEQLALLEKLKSDSSLKQELEFKDKLQALMDKYGMTLHNIIAILDPKAPVTVSAAPQRRARALKVYKNPNNGEVVETKGGNHKVLKAWKEQYGSETVESWLQR	not soluble
MAGLTRALVARHALGRAEAYDAALLDVAQDHLLYLLSQTVQFGDNRLVFKGGTSLRKCRLGNVGRFSTDLDFSAPDDEVVLEVCELIDGARVGGFEFGVQSTRGDGRHWQLRVRHTELGEPRIVASVEFARRPLALPSELLAFIQLPIHKAYGFGLPTLPVVAEAEACAEKLARYRRVALARDLYDLNHFASRTIDEPLVRRLWVLKVWGDVVDDRRGTRPLRVEDVLAARSEHDFQPDSIGVLTRPVAMAAWEARVRKRFAFLTDLDADEQRWAACDERHRREVENALAVLRS	soluble
MSISISYSTTYSGWTVADYLADWSAYFGDVNHRPGQVVDGSNTGGFNPGPFDGSQYALKSTASDAAFIAGGDLHYTLFSNPSHTLWGKLDSIALGDTLTGGASSGGYALDSQEVSFSNLGLDSPIAQGRDGTVHKVVYGLMSGDSSALQGQIDALLKAVDPSLSINSTFDQLAAAGVAHATPAA	soluble
MASSTVPVSAAGSANETPEIPDNVGDWLRGVYRFATDRNDFRRNLILNLGLFAAGVWLARNLSDIDLMAPQPGV	not soluble
MKQTTINHSVELVGIGLHKGVPVKLVLEPLGENQGIVFYRSDLGVNLPLKPENIVDTKMATVLGKDNARISTIEHLLSAVHAYGIDNLKISVDNEEIPIMDGSALTYCMLLDEAGIKELDAPKKVMEIKQAVEIRESDKFVKIEPDSQLSLNFTIDFNHPVIAKQAHHFVFSKTAYKEQVAKARTFGFLQEVNYLRSIGLAKGGSLNNCIVLDENSILNKEGLRCEKEFVCHKILDAMGDLMVLGMPVMGKYTSFSGSHKLNSMLVKAILADAKNYEVLIAADPAKEFALQKAFALEHHHHHH	not soluble
MGSDKIHHHHHHMILLVGGEKGGSGKSCLAQNIAVHISQKHDANVLMVDCDPQRTTSDWIQARNNDPSLKAINCIQLYGKIRNDLLSLNDRFDYVIVDCGGQDNLAMRAAMSVATYVVIPLRPKRRDLKTLPHMEDMLSTCKMVNPKMIAAIVITQCPALPSQGKRILEAKEVVESFGLRALNSVTFSRNIYDDSEESGSSVLEIDPSGKAADEIRAIADELFAIPPENSYEFN	not soluble
MKKMAFAAIALGLVACAPAQQQRLVYPPTVEVERIQLTSFSLPAPGRAAVAGVRLELNVDNPNPLPVRLVQLAGVLVLDGQEAGTVTVPDIRLPGQGRARQVAQLTLPVTFKTATTFLNIARGQEVSYRLDGTLTADLGPLGQPTFGPFTLTQGVWKQAPLSVF	soluble
MNEFTAVKELSEKLLEDYKTESSFFFASPTRTILAEGEFTTVKHHEIESFPELVQAVLRNAKQAGNPNPIVVGALPFDRRKEVQLIVPEYSRISERLQLDPTNHLEINRNLTFEMTPVPDHEVYMKGVKQGIEKIKDGDLKKIVLSRSLDVKSSGKIDKQKLLRELAEHNKHGYTFAVNLPKDENENSKTLIGASPELLVSRHGMQVISNPLAGSRPRSDDPVEDKRRAEELLSSPKDLHEHAVVVEAVAAALRPYCHTLYVPEKPSVIHSEAMWHLSTEVKGELKNPNTSSLELAIALHPTPAVCGTPMEEAREAIQKIEPFDREFFTGMLGWSDLNGDGEWIVTIRCAEVQENTLRLYAGAGVVAESKPEDELAETSAKFQTMLKALGLNDSSLNEK	not soluble
MSLPDATVVKAFLLDLQHRICAGLEQLDGQASFAADSWTRAEGGGGTSRVLTQGAVFEQAGVNFSHVTGAAMPASATAHRPELAGRSFEAMGVSLVIHPKNPYIPTTHANVRFFIAHKDGAEPVWWFGGGFDLTPYYPFEEDVREWHQSAKNLCQPFGDDVYPKYKKWCDEYFFLPHRNETRGVGGLFFDDLNQAGFDKSFDFMQAVGNGFLTAYAPIVERRKDTDYGERERDFQLYRRGRYVEFNLVYDRGTLFGLQTGGRTESILMSMPPLVRWQYAYTPAAGSPEADLYDNYLKPRDWVLEHHHHHH	not soluble
MTATSSPTTRFTDRVVLITGGGSGLGRATAVRLAAEGAKLSLVDVSSEGLEASKAAVLETAPDAEVLTTVADVSDEAQVEAYVTATTERFGRIDGFFNNAGIEGKQNPTESFTAAEFDKVVSINLRGVFLGLEKVLKIMREQGSGMVVNTASVGGIRGIGNQSGYAAAKHGVVGLTRNSAVEYGRYGIRINAIAPGAIWTPMVENSMKQLDPENPRKAAEEFIQVNPSKRYGEAPEIAAVVAFLLSDDASYVNATVVPIDGGQSAAY	soluble
GPGSMSKQLTFISAGATAAVLQSASAIVSKVAGGRVQTKTAKEAGRHAVVVGPETPIGVHTAVTEAPKSAQDPLFSGVSTVVVRAVLPRAAPDSVQLRDALDVYASAGIDTKEEVRSATEAFKKSAEVAVGKAKAKGVKRIVLVVKQASKHNCINELFKKISTETIESAGLTTEVVGTASVANQLIVNPESLGVVLLNDVAATEQIELAFAGVVGGVSRVYHTVEGGKISAGHSFKSVALAVAQELRELGLSSEADKVEAAASKNPRAVVSAL	not soluble
MSLQESLQDRLAQVVELLHRHKVVEDLTHRQEGQHHDRVENLVHRQNLVELQRKLEELHPADIAHILESLPLDDRLTVWQLVKSEDDGDILLEVSDAVRETLIADMDDHEIIAATKDLDADELADLAPELPRDVVHELMESLDAQQRERVRSALSYEEDQVGALMDFEMVTIREDVSLEVVLRYLRRLKELPGHTDKLFVVDYDGVLKGVLPIKRLLVNDPDKQVLEVMATDPVTFHPDEDGYDAAQAFERYDLISAPVVDKGGKLIGRLTIDEMVDLIREESESEVLNMAGLREEEDIFASVWEGHHHHHH	soluble
MARNPEEAQRVVIPLGSEEALAFLGQADRNLKRLRSLFRTYLGDEVRLVSRGEQVEVLGPPEAVEKAERALRDLLALLRQGAELDEATLEQAVRLAAEGEGLYQATEPELELQLPGRLRPKTPGQKRYVEAIARHDITFGIGPAGTGKTYLAVAMAVSHLRARRVKRIILTRPAVEAGEKLGFLPGDIQAKVDPYLRPLYDALFDMIDAERFEQYLQSGIIEVAPLAFMRGRTLNDAFIILDEAQNTTPEQMKMFLTRMGFSSKMVITGDVTQIDLPKHQRSGLVEAIRILKGIEGIAFVHFKESDVVRHPLVARIIKAYEEAERGGGGAQ	soluble
MQATIYDLDGNTDGEVDLPDVFETPVRSDLIGKAVRAAQANRKQDYGSDEYAGLRTPAESFGSGRGQAHVPKLDGRARRVPQAVKGRSAHPPKTEKDRSLDLNDKERQLAVRSALAATADADLVADRGHEFDRDEVPVVVSDDFEDLVKTQEVVSLLEALDVHADIDRADETKIKAGQGSARGRKYRRPASILFVTSDEPSTAARNLAGADVATASEVNTEDLAPGGAPGRLTVFTESALAEVAER	soluble
MEGLFNAIKDTVTAAINNDGAKLGTSIVSIVENGVGLLGKLFGF	soluble
MAHHHHHHMDIERLAKNATEITHQSLMLKNIQKEQNNYCKQCGYIYNYDDYMYMYMKRFNLSKWRETSNCLSGRNPYGPFSGGMESSQFDNENCIRCIYCGAIIDTIEMYDHWNGKESYIELNSYREKFIFDKNKKSYWKNKITSLEKNVSLFKEDQNQAYNITYEKCTDCGNDFLHFINIQTRSADEGSTIIYFCPNCKKQTTVNN	not soluble
GPGSMTDRLTAEDVFYELSTIRDPERPDCTLADLDVVAMNRCRVEYIESSADFQSLRGQGCNDSGKPSVVVKVILQPTVPHCSLMEFICLCVYVRLREVFSLSNNAKFDITLVDGSHVRQRELEKQVADKERLAAAMEDKALLQEVERHINCE	soluble
MLFGQSVFQSVVERLKQEKEEEGTEPSPPAGHRIAGFSSGFVVDTHIEAPQPANGNLDAYLAFLADPAPPPESQTEPEPEPMPAHLEKTALADVSAELAIQETDTVATLAEKRRAFARLNHPDRVKPQFRHNATLRMTAANLLIDQALRMLRTREHFR	not soluble
MDSIPLEKPHVVSLIGGFGYREPIFRKVLTTAMLDPGINYTLISGPSLDPSKLGGVPKNVRILNFVEDTYPYIKSSDAVIAPGGHSTIMEALSFGVPILSFPDEGHSEQESNAAVVEEEGYGRMLSYSTPPEVILECIREVIEDEAYRNKVERLQRLSGELEHHHHHH	soluble
MILHGFHLSTSSHCLPFIFRHLFIFHSITALCDHMLSKFVVVEVSNSNNTMTLVEYLVTHGFDKFAVVTDLVDHPSFKYKDGSSSPESPSTTASTAAQHTPPRTAVSTPTSINTPVPPHQNKQRHSIDKIAANLSTKKVSPSSIEKQLQRTSHNPLHQLSTPHALSQLQKLLEEQHKINQMNIQKKEQERQQAEIQRILLQQANAAQINHSFGLERLTPEYDDNHHSETISKASSEDLKTEPDSTDFGLGTSDDQVRASMLHLLHPVFAPAFGMLDAENIFGAASKPTTPASKRRNTDSNGAPSKKHRWLPVNELEESRSSRGKNCGRVHCKATYKCALCGKPTTLNSTGSRWNLLRHVIMIHSDCKPYKCWDCDFTGIKSNVISHARQCRHNAEDAHDITTDEMRAEWNLRLHECFPDYVRAKERGWQPEEVTVKKEEVEESPTLVKQELTLVKQEPTFAEQLEPMAQPLV	not soluble
MMSILRSQCQISLDVTLSVPNVSEGIVRLLDPQTNTEIANYPIYKILFCVRGHDGTPESDCFAFTESHYNAELFRIHVFRCEIQEAVSRILYSFATAFRRSAKQTPLSATAAPQTPDSDIFTFSVSLEIKEDDGKGYFSAVPKDKDRQCFKLRQGIDKKIVIYVQQTTNKELAIERCFGLLLSPGKDVRIVTALIRFGSMGKVQMESRMLFGELESKIPTFSSCNEEPPKDKVLFMTTAVDLVITEVQEPVRFLLETKVRVCSPNERLFWPFSKRSTTENFFLKLKQIKQRERKNNTDTLYEVVCLESLEHHHHHHLEHHHHHHLEHHHHHHLEHHHHHHLEHHHHHHLEHHHHHHLEHHHHHH	not soluble
